Legend:
Conditions in all cases: EMSA: 10 mM Tris-HCl pH 7.5, 50 mM KCl, 5 mM MgCl2, 2.5% glycerol, 1 mM DTT, 50 ug/mL poly dI-dC, 20 fmol probe, room temperature 25 min (20 min in Fig …)
[1] = molecular target: T1, EcxR (Ehrlichia chaffeensis) (UniProt Q2GG40); test: EMSA
T1 sequence: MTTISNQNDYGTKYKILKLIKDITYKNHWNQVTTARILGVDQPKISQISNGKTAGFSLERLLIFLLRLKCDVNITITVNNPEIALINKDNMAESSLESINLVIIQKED

[2] = molecular target: T1, EcxR (Ehrlichia chaffeensis); test: Southwestern blot
[3] = molecular target: T2, Tr1 (Ehrlichia chaffeensis) (UniProt Q2GF81); test: Southwestern blot
T2 sequence: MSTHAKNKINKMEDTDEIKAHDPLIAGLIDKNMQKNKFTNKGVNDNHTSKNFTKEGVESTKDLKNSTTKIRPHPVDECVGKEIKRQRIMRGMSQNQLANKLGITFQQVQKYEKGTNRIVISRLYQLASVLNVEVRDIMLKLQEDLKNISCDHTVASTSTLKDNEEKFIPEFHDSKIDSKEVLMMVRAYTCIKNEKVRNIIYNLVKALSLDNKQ

Sequence: GTACCTAAATCTATACCTATAACAGCCATAAATAGCCCCCTTACATAAAAATCAAAACTATAATCACAGATATAATAACCAAATCATAAGATTACAACCCCATTTAACACAAGTTCATAAATTTATGAA (double strand) [dnaK promoter EMSA probe]
- binding [1]: binds

Sequence: TTGCTCAACCATAAAATAATGGGAAATTACCTTTTCTAGGAAGTTTCTCATTATTTAACAGTTAACTTTCTGTAAACTTCTAATAACAGTATTTTGTTCACTCTTCCCCTTAATAAAAATCATAAGTTTACAATAATGTCAAAAAGATTTCTTTTTAAACACATTTAAAATGGCTAAACC (double strand) [p28-Omp14-P1]
- binding [1]: binds

Sequence: TACCCGGACAAACTGACTTTCATGTTTAATATAAATTATTGATCCAATCAAGCTAAAAAGTAAATAAATTTTATCTTATATTTCATAAAGCATAATATGTTATTTCTGTATATTATATAATTAGTATACTATTCCAGCAAACTAGATAGAATATATCCATTAAATAACTATTGCATTCACTTTATGCATGATTTATCTTACATAGGTTGCTTTGT (double strand) [tr1 promoter (SWB probe)]
- binding [2]: binds
- binding [3]: binds

Sequence: CAGGAGTTACTCCATGTGCAAGTAGTATCTTGTAAACACTAGTGTCTTTAACAACTGCAAGAGCTTGTAATAATCTCTCCACAGTTACATAAGTATCCTGATTCCTTTTTGCTAAACTAATAGCTTCTTCTAAAACCTGAGCCATTTCTTTTGATAAATGTATATGACCACTACCACTTCCACTTACAACAGGTAATTTACTTAAGGAGAGTTTTATATCACTGTATATCTTATCAATATCACATCCACATGAAGTCAGCAACA (double strand) [clpB-ORF]
- binding [1]: no binding

Sequence: CTACCTCTATAAAAAAATAAATTATCAGTAGCATCAGATACTACTAGCTAAGATCATATATAATATCAAGAAATCTAATTTCAAGTATCAATCAATAAATTTTATAATACATATTGCACAAATGTTTACAAGGTTAGAACTTTATAGGACCCAGTAGAAATATTATATTACTCTGTAACAGTTTACATAACACATAAAAAATCAATTGACTTGATACTGAAAACATCGTTGATATTTAAGTAGTTAATTTTTTAAGTAAGTTAGCATGCGCTG (double strand) [groES/L promoter (SWB probe)]
- binding [2]: binds

Sequence: GGTGTTTTTATAATTTTATTACTAAGATATTTTTTTATTAATAACTATATGCCAATACAGATAGTATAAGTATCTTATAATAAATCCATCATCTTAATGTAAGTAATACATATAACTAATAACAATAATATATTAACATTTTTATAGAATATCTATCATAATCAAACATTAACTAAATTCTCTACTAGCAGTAAATTGAATATCTACAATTTACACGTTCTACTGTTTTGCTTGCCAACTTAATTGATACTGCTTATCATCTGAATATCAAAAGATGATAGGGTACTGT (double strand) [clpB promoter EMSA probe]
- binding [1]: binds

Sequence: GTTTTCTGCTTTATTAGAATGATTCCCAAATAAATTTTAATTAATTACTGTTCCGTATTTATTAATATATGTTATAATGTAATTAAATAAGGATACTAGATTTGCTCATAATGCATGTAC (double strand) [p28-Omp14-P3]
- binding [1]: binds

Sequence: GGATAAGTACTTTAGCAAGTGGTAAAAGCAAGTCTACTCATATTTTTATTAATTAAGTAGTAAAGTTAACTATAGATTTTATTAAAATTTTTATTCTAATCACTTTAAATATCAATTACTTTTGTTGTAAATTTGAAAGAAATTTTATATTCTAGAC (double strand) [p28-Omp14-P5]
- binding [1]: no binding

Sequence: GGTGTTTTTATAATTTTATTACTAAGATATTTTTTTATTAATAACTATATGCCAATACAGATAGTATAAGTATCTTATAATAAATCCATCATCTTAATGTAAGTAATACATATAACTAATAACAATAATATATTAACATTTTTATAGAATATCTATCATAATCAAACATTAACTAAATTCTCTACTAGCAGTAAATTGAATATCTACAATTTACACGTTCTACTGTTTTGCTTGCCAACTTAATTGATACTGCTTATCATCTGAATATCAAAAGATGATAGGGTACTGT (double strand) [clpB promoter (SWB probe)]
- binding [2]: binds

Sequence: GTACCTAAATCTATACCTATAACAGCCATAAATAGCCCCCTTACATAAAAATCAAAACTATAATCACAGATATAATAACCAAATCATAAGATTACAACCCCATTTAACACAAGTTCATAAATTTATGGCATGCGCTG (double strand) [dnaK promoter (SWB probe)]
- binding [2]: binds

Sequence: CTTTTGTAAGGAAAATTTAATATATTACGTCAGGTAAGTAATAGCAAAAAAACTGGTTAAGTATAGTATCATGTGTAAAGGTGAGAAAAACAGCAC (double strand) [p28-Omp19-P2]
- binding [1]: binds

Sequence: GACTCTAGACTTTTAATTTTATTATTGCCACATGTTAAAAATAATCTAAACTTGTTTTTATTATTGCTGCAGGTAAATAAAAATAGTGGCAAAAGAATGTAGCAATAAGAGGGGGGGGGGGGGGACTAGTTTATAAGTGC (double strand) [p28-Omp19-P1]
- binding [1]: no binding

Sequence: TAACTTACTTAAAAAATTAACTACTTAAATATCAACGATGTTTTCAGTATCAAGTCAATTGATTTTTTATGTGTTATGTAAACTGTTACAGAGTAATATAATATTTCTACTGGGTCCTATAAAGTTCTAACCTTGTAAACATTTGTGCAATATGTATTATAAAATTTATTGATTGATACTTGAAATTAGATTTCTTGATATTATATATGATCTTAGCTAGTAGTATCTGATGCTACTGATAATTTATTTTTTTATAGAGGTAG (double strand) [groES/L promoter EMSA probe]
- binding [1]: binds

Sequence: GTTCCGTATTTATTAATATATGTTATAATGTAATTAAATAAGGATACTAGATTTGCTCATAATGCATGTACTGAATTTGTGATTTGAAATAACAAGACTTAAATGTCGAATTTAGCTTCTGTCCTAGTGGATAAGTACTTTAGCAAGTGGTAAAAGCAAGTCTACTCATATTTTTATTAATTAAGTAGTAAAGTTAACTATAG (double strand) [p28-Omp14-P4]
- binding [1]: binds

Sequence: GATTAATAGATTCTAGGGAACTCTCTGCCATATTGTCTTTGTTAATTAATGCAATTTCTGGGTTATTGACAGTGATTGTTATATTCACATCACATTTTAGACGTAACAAAAATATAAGTAAACGTTCTAATGAAAATCCTGCTGTTTTACCATTACTAATCTGAGATATTTTTGGTTGGTCTACGCCCAGTATCCTTGCTGTGGTTACTTGGTTCCAGTGATTCTTA (double strand) [ecxR-ORF]
- binding [1]: no binding

Sequence: ATATAACCTAATAGTGACAAATAAATTAACAATAGTAGAAGTGTCATATAAAAGCAAGTCAGAATATAAATTTTTGTATAAAATATCGGTAACTTTTGTAAGGAAAATTTAATATATTACGTCAG (double strand) [p28-Omp19-P3]
- binding [1]: binds

Sequence: GGTTTAGCCATTTTAAATGTGTTTAAAAAGAAATCTTTTTGACATTATTGTAAACTTATGATTTTTATTAAGGGGAAGAGTGAACAAAATACTGTTATTAGAAGTTTACAGAAAGTTAACTG (double strand) [p28-Omp14-P2]
- binding [1]: no binding

From publication PMC9657007
